{"source": "FireProtDB (doi:10.1021/bi060907v)", "proteins": {"B1": {"name": "Ribonuclease HII wild type, O74035 (protein)", "chain": "MKIAGIDEAGRGPVIGPMVIAAVVVDENSLPKLEELKVRDSKKLTPKRREKLFNEILGVLDDYVILELPPDVIGSREGTLNEFEVENFAKALNSLKVKPDVIYADAADVDEERFARELGERLNFEAEVVAKHKADDIFPVVSAASILAKVTRDRAVEKLKEEYGEIGSGYPSDPRTRAFLENYYREHGEFPPIVRKGWKTLKKIAEKVESEKKAEERQATLDRYFRKV"}}, "conditions": "Thermococcus kodakarensis (strain ATCC BAA-918 / JCM 12380 / KOD1), pH 9, reversible: Yes, whole UniProt chain shown", "key": {"[1]": {"conditions": "50 °C, GdnHCl, CD, Tris-HCl 20 mM"}}}
{"protein": "B1", "values": [{"measurement": "denaturant m value", "setting": "[1]", "result": 5.64, "unit": "kcal/mol/M"}, {"measurement": "denaturant midpoint (higher = more stable)", "setting": "[1]", "result": 1.85, "unit": "M"}, {"measurement": "Tm", "setting": "Thermal, DSC, Gly-NaOH 20 mM", "result": 85.2, "unit": "°C"}, {"measurement": "unfolding enthalpy (calorimetric)", "setting": "Thermal, DSC, Gly-NaOH 20 mM", "result": 137, "unit": "kcal/mol"}, {"measurement": "unfolding enthalpy (van 't Hoff)", "setting": "Thermal, DSC, Gly-NaOH 20 mM", "result": 163, "unit": "kcal/mol"}]}
